Results from publication doi:10.1101/830265.
Where two headings read alike, the source gives them in different places.

Legend:
[1] = molecular target: total gliadin fraction (Triticum aestivum); test: turbidimetry
[2] = molecular target: total gliadin fraction (Triticum aestivum); test: turbidimetry; remark: listed apart in the source
[3] = molecular target: total gliadin fraction (Triticum aestivum); test: turbidimetry; remark: listed apart in the source
[4] = molecular target: γ-gliadin (Triticum aestivum) (UniProt P08453); test: SPR
[5] = molecular target: α-gliadin (Triticum aestivum); test: SPR

Chain of γ-gliadin (Triticum aestivum) (P08453 20-327): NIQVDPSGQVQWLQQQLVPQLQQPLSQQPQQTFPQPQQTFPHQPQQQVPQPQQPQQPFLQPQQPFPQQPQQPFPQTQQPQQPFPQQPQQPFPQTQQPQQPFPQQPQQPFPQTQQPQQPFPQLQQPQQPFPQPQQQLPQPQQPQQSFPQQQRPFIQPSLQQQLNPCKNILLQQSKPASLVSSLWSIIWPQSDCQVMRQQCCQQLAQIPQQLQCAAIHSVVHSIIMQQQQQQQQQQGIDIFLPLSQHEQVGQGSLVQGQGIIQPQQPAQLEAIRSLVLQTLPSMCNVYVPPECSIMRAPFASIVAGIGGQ

B1: puroindoline A (natural protein)
chain: DVAGGGGAQQCPVETKLNSCRNYLLDRCSTMKDFPVTWRWWKWWKGGCQELLGECCSRLGQMPPQCRCNIIQGSIQGDLGGIFGFQRDRASKVIQEAKNLPPRCNQGPPCNIPGTIGYYW
[1]
  Kd: 1000 nM
[2]
  Kd: 600 nM
[3]
  Kd: 400 nM
[4]
  Kd: 630 nM
  response at equilibrium at 2.5 µM PINA: 34 RU
[5]
  Kd: 4450 nM
  response at equilibrium at 2.5 µM PINA: 160 RU
